Measured values reported in patent US20080160015A1.

How the values were obtained:
[1] = biological target: human monoclonal anti-C1 domain of Factor VIII inhibitory antibody RHD5; test: competition ELISA: 18B6 with RHD5 2 µg/ml, RHD5 binding to coated recFVIII detected
[2] = biological target: human monoclonal anti-C1 domain of Factor VIII inhibitory antibody RHD5; test: competition ELISA: 18B6 at 0.78 µg/ml with RHD5 2 µg/ml, RHD5 binding to coated recFVIII detected
[3] = biological target: human monoclonal anti-C1 domain of Factor VIII inhibitory antibody RHD5; test: competition ELISA: 18B6 at 0.39 µg/ml with RHD5 2 µg/ml, RHD5 binding to coated recFVIII detected
[4] = biological target: human monoclonal anti-C1 domain of Factor VIII inhibitory antibody RHD5; test: competition ELISA: 18B6 at 0.098 µg/ml with RHD5 2 µg/ml, RHD5 binding to coated recFVIII detected
[5] = biological target: human monoclonal anti-C1 domain of Factor VIII inhibitory antibody RHD5; test: SPR (BIAcore), RHD5 immobilized on CM5, 18B6 infused
[6] = biological target: human monoclonal anti-C1 domain of Factor VIII inhibitory antibody RHD5; test: competition ELISA: supernatant preincubated with RHD5 (0.6 µg/ml), RHD5 binding to coated recFVIII detected
[7] = biological target: human monoclonal anti-C1 domain of Factor VIII inhibitory antibody RHD5; test: competition ELISA: 18B6 at 50 µg/ml with RHD5 2 µg/ml, RHD5 binding to coated recFVIII detected
[8] = biological target: human monoclonal anti-C1 domain of Factor VIII inhibitory antibody RHD5; test: competition ELISA: 18B6 at 25 µg/ml with RHD5 2 µg/ml, RHD5 binding to coated recFVIII detected
[9] = biological target: human monoclonal anti-C1 domain of Factor VIII inhibitory antibody RHD5; test: cell-based or functional assay
[10] = biological target: human monoclonal anti-C1 domain of Factor VIII inhibitory antibody RHD5; test: competition ELISA: 18B6 at 0.195 µg/ml with RHD5 2 µg/ml, RHD5 binding to coated recFVIII detected
[11] = biological target: human monoclonal anti-C1 domain of Factor VIII inhibitory antibody RHD5; test: competition ELISA: 18B6 at 12.5 µg/ml with RHD5 2 µg/ml, RHD5 binding to coated recFVIII detected
[12] = biological target: human monoclonal anti-C1 domain of Factor VIII inhibitory antibody RHD5; test: competition ELISA: 18B6 at 1.56 µg/ml with RHD5 2 µg/ml, RHD5 binding to coated recFVIII detected
[13] = biological target: human monoclonal anti-C1 domain of Factor VIII inhibitory antibody RHD5; test: competition ELISA: 18B6 at 6.25 µg/ml with RHD5 2 µg/ml, RHD5 binding to coated recFVIII detected
[14] = biological target: human monoclonal anti-C1 domain of Factor VIII inhibitory antibody RHD5; test: competition ELISA: 18B6 at 3.12 µg/ml with RHD5 2 µg/ml, RHD5 binding to coated recFVIII detected

B1: monoclonal anti-idiotypic antibody 18B6 (antibody, V domains shown)
VH: QVQLQQSGAELAKPGASVKMSCKASGYTFTTYWMHWIKQRPGQDLEWIGYINPTSGYTEYNQNFKDKATLTADKSSSTAYMQLNSLTSEDSAVYFCARSGAYYRYDDAMDSWGQGTSVTVSS
VL: QIVLSQSPAILSASPGEKVTMTCRASSSVSYMNWYQQKPGSSPKPWIYATSNLASGVPARFSGSGSGTSYSLTISRVEAEDAATYYCQQWSSNPPMLTFGAGTKLELK
modifications: mouse IgG1 kappa constant regions
B1 showed an inhibition of binding at an equimolar ratio (%) [1] of 92%, a molar ratio RHD5/18B6 at 50% inhibition (molar ratio RHD5/18B6) [1] of 2.5 and an Inhibition of binding (%) [2] of 50.3%. The Inhibition of binding (%) [3] was 9.2%, the Inhibition of binding (%) [4] was 0% and the Kd [5] was 3.4 nM. For the same binder, the koff [5] was 1.45e-05 s⁻¹, the kon [5] was 4260 M⁻¹ s⁻¹ and the Inhibition: Elisa (%) [6] was 93.1%. The Inhibition of binding (%) [7] was 96.1%, the Inhibition of binding (%) [8] was 97.2% and the Neutralisation (%) of RHD5 (0.4 µg/ml) inhibitory activity, chromogenic FVIII assay, anti-Id at 0.0002 µg/ml [9] was 0%. For the same binder, the Neutralisation (%) of RHD5 (0.4 µg/ml) inhibitory activity, chromogenic FVIII assay, anti-Id at 0.0006 µg/ml [9] was 6.7%, the Neutralisation (%) of RHD5 (0.4 µg/ml) inhibitory activity, chromogenic FVIII assay, anti-Id at 0.00183 µg/ml [9] was 8.9% and the Neutralisation (%) of RHD5 (0.4 µg/ml) inhibitory activity, chromogenic FVIII assay, anti-Id at 0.0055 µg/ml [9] was 6.7%. For the same binder, the Neutralisation (%) of RHD5 (0.4 µg/ml) inhibitory activity, chromogenic FVIII assay, anti-Id at 0.0165 µg/ml [9] was 8.8%, the Neutralisation (%) of RHD5 (0.4 µg/ml) inhibitory activity, chromogenic FVIII assay, anti-Id at 0.049 µg/ml [9] was 11% and the Neutralisation (%) of RHD5 (0.4 µg/ml) inhibitory activity, chromogenic FVIII assay, anti-Id at 0.148 µg/ml [9] was 27.4%. The Neutralisation (%) of RHD5 (0.4 µg/ml) inhibitory activity, chromogenic FVIII assay, anti-Id at 0.44 µg/ml [9] was 54.3%, the Neutralisation (%) of RHD5 (0.4 µg/ml) inhibitory activity, chromogenic FVIII assay, anti-Id at 1.33 µg/ml [9] was 81.2% and the Neutralisation (%) of RHD5 (0.4 µg/ml) inhibitory activity, chromogenic FVIII assay, anti-Id at 4 µg/ml [9] was 89.5%. It also gave a Neutralization: functional test (chromogenic FVIII assay, RHD5 1 µg/ml with supernatant, FVIII Kogenate 0.5 U/ml) [9] of 100%, a neutralisation of RHD5 inhibitory activity at an equimolar RHD5/18B6 ratio [9] of 50% and an Inhibition of binding (%) [10] of 0%. The Inhibition of binding (%) [11] was 96.9%, the Inhibition of binding (%) [12] was 90.3% and the Inhibition of binding (%) [13] was 96.7%. For the same binder, the Inhibition of binding (%) [14] was 94.1%.
